{"source": "patent US20180140679A1", "about": "“MODULATION OF AXL RECEPTOR ACTIVITY IN COMBINATION WITH CYTOREDUCTIVE THERAPY” (THE BOARD OF TRUSTEES OF THE LELAND STANFORD JUNIOR …, priority 2016, published 2018)", "molecules": {"B1": {"name": "MYD1 Fc: Fc fusion of the first generation Axl decoy receptor MYD1 (protein)", "chain": "APRGTQAEESPFVSNPGNITGARGLTGTLRCQLQVQGEPPEVHWLRDGQILELADSTQTQVPLGEDEQGDWIVASQLRITSLQLSDTGQYQCLVFLGHQTFVSQPGYVRLEGLPYFLEEPEDRTVAANTPFNLSCQAQGPPEPVDLLWLQDAVPLATAPGHGPQRSLHVPGLNKTSSFSCEAHNAKGVTTSRTATITVLPQQPRNLHLVSRQPTELEVAWTPGLSGIYPLTHCTLQAVLSNDGMGIQAGEPDPPEEPLTSQASVPPHQLRLGSLHPHTPYHIRVACTSSQGPSSWTHWLPVETPEGVPLGPPENISATRNGSQAFVHWQEPRAPLQGTLLGYRLAYQGQDTPEVLMDIGLRQEVTLELQGDGSVSNLTVCVAAYTAAGDGPWSLPVPLEAWRPGQAQPVHQLVKEPSTPAFS", "modifications": "left off: a dimerising Fc or GST"}}, "key": {"[1]": {"biological_target": "T1, free, circulating Gas6 (Mus musculus, UniProt Q61592)", "T1 construct": "from tissue; host or cells: mouse serum (nude nu/nu mice)", "T1 sequence (Q61592 28-674)": "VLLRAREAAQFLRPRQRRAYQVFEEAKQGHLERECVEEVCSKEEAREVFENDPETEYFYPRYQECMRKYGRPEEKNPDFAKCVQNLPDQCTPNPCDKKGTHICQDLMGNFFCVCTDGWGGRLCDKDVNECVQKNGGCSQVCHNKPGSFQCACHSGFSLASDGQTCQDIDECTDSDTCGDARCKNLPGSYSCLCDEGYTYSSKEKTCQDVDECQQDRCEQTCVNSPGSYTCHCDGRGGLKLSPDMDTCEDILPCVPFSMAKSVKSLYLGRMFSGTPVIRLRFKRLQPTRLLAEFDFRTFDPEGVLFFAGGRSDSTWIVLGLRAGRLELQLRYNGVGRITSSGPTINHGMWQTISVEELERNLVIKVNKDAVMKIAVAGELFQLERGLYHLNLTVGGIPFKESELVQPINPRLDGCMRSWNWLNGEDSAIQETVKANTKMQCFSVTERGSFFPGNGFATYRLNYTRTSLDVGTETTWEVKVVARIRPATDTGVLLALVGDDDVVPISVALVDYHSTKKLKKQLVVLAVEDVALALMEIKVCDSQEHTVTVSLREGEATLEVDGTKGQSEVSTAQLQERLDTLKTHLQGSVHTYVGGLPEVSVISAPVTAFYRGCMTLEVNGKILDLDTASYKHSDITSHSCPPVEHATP", "conditions": "as previously determined using the same assay; cited from earlier work"}, "[2]": {"biological_target": "T2, human Gas6 (Homo sapiens, UniProt Q14393)", "T2 sequence (Q14393 31-678)": "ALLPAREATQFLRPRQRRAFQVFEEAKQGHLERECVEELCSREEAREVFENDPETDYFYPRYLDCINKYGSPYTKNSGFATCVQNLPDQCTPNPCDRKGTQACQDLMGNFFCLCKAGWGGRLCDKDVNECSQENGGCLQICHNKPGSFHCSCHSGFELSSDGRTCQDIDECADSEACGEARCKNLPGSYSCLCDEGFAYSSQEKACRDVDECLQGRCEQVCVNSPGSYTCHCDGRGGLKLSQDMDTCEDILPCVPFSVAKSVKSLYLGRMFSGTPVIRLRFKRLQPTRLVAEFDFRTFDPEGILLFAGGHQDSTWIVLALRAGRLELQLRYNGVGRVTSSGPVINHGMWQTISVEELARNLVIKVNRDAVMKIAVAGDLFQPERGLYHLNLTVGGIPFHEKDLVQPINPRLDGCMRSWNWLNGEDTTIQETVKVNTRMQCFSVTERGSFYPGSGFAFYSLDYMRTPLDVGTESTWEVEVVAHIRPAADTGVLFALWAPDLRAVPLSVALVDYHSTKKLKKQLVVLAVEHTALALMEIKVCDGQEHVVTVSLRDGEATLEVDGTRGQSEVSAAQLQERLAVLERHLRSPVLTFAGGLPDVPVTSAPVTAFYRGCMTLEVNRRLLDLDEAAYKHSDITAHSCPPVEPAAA", "assay": "Kinetic Exclusion Assay (KinExA), Gas6-Axl binding, human Gas6", "method": "Equilibrium binding and association rate constants for all Gas6-Axl interactions were measured on a KinExA3200 instrument (Sapidyne Instruments Inc. Boise, Id.) as previously described. For equilibrium binding studies, three independent titrations were completed for each Axl Ig1 or Axl Fc fusion unless otherwise noted. […] After the appropriate incubation time, reactions were flowed over MYD1 Fc coated beads and captured free Gas6 was probed using an anti-6×HIS Dylight 649 antibody (#200-343-382, Rockland Immunochemicals Inc., Pottstown, Pa.). Each sample was measured twice and data from the three independent equilibrium binding experiments were globally analyzed using n-curve analysis in the KinExA Pro 3.6.2 software (Sapidyne Instruments Inc. Boise, Id.) to obtain the Kd value. To analyze the association rate of the interactions, the direct inject method was used. For these experiments, 1 μM Axl was serially diluted 1:2.5, and equal volumes of each Axl sample and 500 nM Gas6 were briefly mixed and flowed over the capture beads. Free Gas6 was detected as described and the data was fit using the KinExA Pro 3.6.2 software to obtain the association rate (kon) of the interaction. The dissociation rate (koff) was calculated as the product of the Kd and the kon."}, "[3]": {"tested_on": "Axl and FLT3 phosphorylation in AML cells", "assay": "Western blot of Axl and FLT3 phosphorylation in AML cells", "format": "cell-based, human", "description": "Cell lysates subjected to sodium dodecyl sulfate polyacrylamide gel electrophoresis followed by transfer to nitrocellulose membrane. The membranes were then probed with primary antibodies against total Axl (AF154, R&D Systems, INC., Minneapolis, Minn.), phospho-Axl (T702; #5724, CST, Danvers, Mass.), total Akt (#4691 CST, Danvers, Mass.), phosphor-Akt (#4060, CST, Danvers, Mass.), anti-MERTK (#ab52968, Abcam, Cambridge, Mass.), phospho-MERTK (#ab14921 Abcam, Cambridge, Mass.), anti-Tyro3 (#5585, CST, Danvers, Mass.), phospho-Tyro3 (#orb186274, Biorbyt LLC, Berkely, Calif.), Bcl-2 Family Antibody Sampler Kit (#9934, CST, Danvers, Mass.), anti-Chk2 (#sc-5278, Santa Cruz Biotech, INC., Santa Cruz, Calif.), anti-XRCC1 (#2735, CST, Danvers, Mass.), anti-γH2AX (Merck Millipore #05636, Darmstadt, Germany), anti-phospho-ATM (#ab81292, Abcam, Cambridge, Mass.), anti-ATM (#ab78, Abcam, Cambridge, Mass.), anti phospho-ATR (#2853, CST, Danvers, Mass.), anti-ATR (#2790, CST, Danvers, Mass.), anti-Phospho Chk1 (#12302, CST, Danvers, Mass.), anti-Phospho Chk2 (#2197, CST, Danvers, Mass.) and anti-RPA32 (#2208, CST, Danvers, Mass.) at 4° C. overnight. The blots were then washed and probed with HRP conjugated anti-goat (#sc-2020, Santa Cruz Biotech, INC., Santa Cruz, Calif.), or HRP conjugated anti-rabbit (#A16110, Thermo Fisher Scientific, Walthan, Mass.) as appropriate. The blots were developed with Bio-Rad Western C developing reagent (#170-5060 Bio-Rad, Hercules, Calif.) and visualized with Chemidoc digital imager (#1708280, Bio-Rad, Hercules, Calif.)."}, "[4]": {"biological_target": "T1, free, circulating Gas6", "assay": "In vivo Gas6 serum ELISA (sequestration of endogenous Gas6)", "conditions": "single 0.5 mg/kg dose via tail vein, up to 36 hours", "method": "The amount of free, circulating Gas6 (i.e. not neutralized by the decoy receptor) was then quantified.\nAll doses were formulated in a 200 μl volume. Two mice were analyzed per condition and untreated mice were used to determine baseline Gas6 levels. At 2, 12, 24, and 36 h post-administration, retro-orbital bleeds were performed to obtain blood samples from which serum was isolated and free Gas6 was measured as previously described. The amount of free Gas6 in each sample was determined using a sandwich ELISA. In this assay, MYD1 Fc was used as a capture reagent in order to ensure the detection of free, unbound Gas6, and not Gas6/Axl Fc complexes. Detection of Gas6 was carried out using a biotinylated polyclonal anti-mouse Gas6 antibody (BAF986, R&D Systems, INC., Minneapolis, Minn.) and streptavidin HRP (#4800-30-06 Trevigen Inc., Gaithersburg, Md.)."}}, "data": [{"molecule": "B1", "values": [{"measurement": "in vivo IC50", "setting": "[1]", "value": 0.5, "unit": "mg/kg"}, {"measurement": "koff", "setting": "[2]; calculated as the product of the Kd and the kon", "value": "1.0 10^−5 s^−1"}, {"measurement": "kon", "setting": "[2]; direct inject method", "value": "2.3 10^7 M^−1 s^−1"}, {"measurement": "Axl and FLT3 phosphorylation", "setting": "[3]", "value": "inhibited Axl and FLT3 phosphorylation"}, {"measurement": "free, circulating Gas6 in serum", "setting": "[4]", "value": "rapidly eliminated free Gas6 upon administration"}]}]}
